According to patent US20230002489A1 (SHANGHAI EPIMAB BIOTHERAPEUTICS, published 2023):
Changes are numbered by the printed parent chain.

How the values were obtained:
BCMA on NCI-H929 cells = biological target: T1, BCMA on NCI-H929 cells (human, UniProt Q02223 1-184); assay: cell-based or functional assay
T1 sequence (looked up): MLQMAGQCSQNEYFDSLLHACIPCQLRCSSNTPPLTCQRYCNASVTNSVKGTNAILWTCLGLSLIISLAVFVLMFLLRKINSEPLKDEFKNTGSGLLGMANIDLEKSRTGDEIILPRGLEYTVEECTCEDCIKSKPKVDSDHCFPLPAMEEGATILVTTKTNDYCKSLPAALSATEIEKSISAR

[1] = biological target: T2, BCMA on HEK293F-BCMA-NF-kB-luc cells (clone 1H2) (UniProt Q02223 1-184, limits assumed); assay: cell-based or functional assay
T2 sequence (looked up): T1 sequence (looked up)

[2] = biological target: T2, BCMA on HEK293F-BCMA-NF-kB-luc cells …; assay: cell-based or functional assay; remark: listed apart in the source
[3] = biological target: T3, recombinant human BCMA extracellular domain/Fc dimer (human); assay: SPR, Biacore T200, 25 C; antibody captured on anti-mouse IgG Fc, BCMA(ECD)/Fc injected
T3 construct: also called Human BCMA (ECD); human BCMA(ECD)/Fc
Protocol: (§1) Briefly, goat anti-mouse IgG Fc antibody was directly immobilized across a biosensor chip, and antibody samples were injected over reaction matrices at a flow rate of 5 μl/min. Mouse anti-BCMA IgG test antibody was injected over the immobilized surface and captured by the immobilized anti-Fc antibodies. Human and cynomolgus BCMA(ECD)/Fc target polypeptides were then injected over the captured mouse anti-BCMA IgG surface. The association and dissociation rate constants, kₒₙ (M⁻¹s⁻¹) and koff (s⁻¹), respectively, were determined with a continuous flow rate of 30 μl/min. Rate constants were derived by making kinetic binding measurements at five different concentrations of target BCMA(ECD) polypeptide. The equilibrium dissociation constant KD (M) of the reaction between antibodies and related target proteins was then calculated from the kinetic rate constants using the formula KD=koff/kₒₙ. Kinetic constants were determined by processing and fitting the data to a 1:1 binding model using Biacore analysis software.

[4] = biological target: T4, cynomolgus BCMA(ECD)/Fc target polypeptide (cynomolgus); assay: as above
T4 construct: extracellular domain; also called Cyno BCMA (ECD); cynoBCMA/Fc
Protocol: as §1

[5] = biological target: T5, human CD3 on the surface of Jurkat cells (human, UniProt P07766 23-207; P09693 23-182; P04234 22-171); assay: cell binding assay, Jurkat cells
T5 construct: whole, on cells; Endogenous CD3 complex of the Jurkat T cell line; also called cell surface CD3 target on Jurkat cells; CD3-expressing Jurkat cells
T5 sequence (P07766 23-207, chain 1 of 3): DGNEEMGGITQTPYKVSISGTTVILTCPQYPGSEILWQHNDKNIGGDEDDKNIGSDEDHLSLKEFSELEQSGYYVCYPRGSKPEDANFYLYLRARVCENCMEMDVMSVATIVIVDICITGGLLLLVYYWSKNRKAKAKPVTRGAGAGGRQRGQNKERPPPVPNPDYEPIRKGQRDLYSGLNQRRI
T5 sequence (P09693 23-182, chain 2 of 3): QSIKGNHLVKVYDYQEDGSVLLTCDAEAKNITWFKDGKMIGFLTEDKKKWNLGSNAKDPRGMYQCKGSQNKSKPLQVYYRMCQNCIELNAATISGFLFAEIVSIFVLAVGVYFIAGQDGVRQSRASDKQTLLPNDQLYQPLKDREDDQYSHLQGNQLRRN
T5 sequence (P04234 22-171, chain 3 of 3): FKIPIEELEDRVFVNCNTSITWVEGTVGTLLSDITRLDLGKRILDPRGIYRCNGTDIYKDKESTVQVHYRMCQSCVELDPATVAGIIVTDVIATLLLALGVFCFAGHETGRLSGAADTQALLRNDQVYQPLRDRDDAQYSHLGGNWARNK

[6] = biological target: T6, cynoCD3εγ/Fc fusion protein (cynomolgus monkey, UniProt Q95LI5 22-117; Q95LI7 23-113); assay: ELISA on plate-coated cyno CD3e/g heterodimer-Fc, OD450nm, unit taken from the concentration axis
T6 construct: also called cynomolgus monkey CD3ε/γ heterodimer-Fc fusion protein; not shown: linker and Fc not described for the cynomolgus construct
T6 sequence (looked up) 1: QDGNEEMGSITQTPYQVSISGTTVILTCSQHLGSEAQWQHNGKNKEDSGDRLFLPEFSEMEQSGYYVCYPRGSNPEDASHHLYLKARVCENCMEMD
T6 sequence (looked up) 2: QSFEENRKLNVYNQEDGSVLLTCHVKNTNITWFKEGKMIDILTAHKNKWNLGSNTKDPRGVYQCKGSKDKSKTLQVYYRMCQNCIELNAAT
Protocol: (§2) The binding properties of the isolated murine anti-CD3 antibodies were measured with ELISA as follows: Heterodimeric CD3εγ/Fc fusion protein was coated at 1 μg/mL on 96-well plates at 4° C. overnight. Plates were washed once with washing buffer (PBS containing 0.05% Tween 20) and blocked with ELISA blocking buffer (1% BSA in PBS containing 0.05% Tween 20) at room temperature for 2 hours. Anti-CD3 antibodies were then added and incubated at 37° C. for 1 hour. Plates were washed three times with washing buffer. HRP labeled anti-mouse IgG secondary antibody (Sigma, Cat. #A0168) was added and the plates were incubated at 37° C. for 30 minutes then washed 5 times in washing buffer. 100 μl of tetramethylbenzidine (TMB) chromogenic solution was added to each well. Following color development, the reaction was stopped with 1 Normal HCl and absorbance at 450 nm was measured on a Varioskan™ LUX microplate reader (ThermoFisher Scientific). Binding signals were plotted against antibody concentration with GraphPad Prism 5.0 software and EC50s were calculated accordingly.

[7] = biological target: T7, recombinant huCD3εγ/Fc fusion protein (fusion protein heterodimer) (human); assay: ELISA on plate-coated human CD3e/g heterodimer-Fc, OD450nm, unit taken from the concentration axis
T7 construct: also called huCD3/Fc dimer; heterodimeric CD3εγ/Fc fusion protein
T7 sequence (chain, as listed by the source limits assumed, chain 1 of 2): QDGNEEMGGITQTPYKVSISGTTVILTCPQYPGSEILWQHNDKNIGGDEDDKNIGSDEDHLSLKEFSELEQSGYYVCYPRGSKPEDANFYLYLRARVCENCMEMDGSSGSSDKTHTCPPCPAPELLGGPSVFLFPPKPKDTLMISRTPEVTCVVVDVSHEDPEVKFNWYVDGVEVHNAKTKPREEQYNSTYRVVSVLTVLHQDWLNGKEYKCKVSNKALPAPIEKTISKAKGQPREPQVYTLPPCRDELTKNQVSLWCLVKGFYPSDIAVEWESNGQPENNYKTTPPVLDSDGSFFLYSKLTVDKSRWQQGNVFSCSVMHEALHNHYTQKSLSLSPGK
T7 sequence (chain, as listed by the source limits assumed, chain 2 of 2): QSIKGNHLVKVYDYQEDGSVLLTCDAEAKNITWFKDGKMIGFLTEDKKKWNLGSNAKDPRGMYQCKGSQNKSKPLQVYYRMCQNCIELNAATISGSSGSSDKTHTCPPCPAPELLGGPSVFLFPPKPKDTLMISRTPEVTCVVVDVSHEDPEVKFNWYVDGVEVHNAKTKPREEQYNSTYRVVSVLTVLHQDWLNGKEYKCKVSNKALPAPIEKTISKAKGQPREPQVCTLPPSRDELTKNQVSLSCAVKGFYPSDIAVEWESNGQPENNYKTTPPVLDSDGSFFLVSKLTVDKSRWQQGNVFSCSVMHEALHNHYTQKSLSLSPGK
Protocol: as §2

[8] = biological target: T5, human CD3 on the surface of Jurkat cells; assay: flow cytometry on Jurkat cells, MFI against antibody conc. (nM)
Protocol: Different humanized VH and VK combinations led to humanized anti-CD3 variants with different CD3 binding affinities. The binding activity of the humanized variants of mAbCD3-001 were tested via flow cytometry with the human CD3-expressing Jurkat T cell line. 5×10⁵ Jurkat cells in FACS buffer were seeded into each well of a 96-well plate. Cells were centrifuged at 400 g for 5 minutes and supernatants were discarded. For each well, 100 μl of serially diluted antibodies were then added and mixed with the cells. After 40 minutes incubation at 4° C., plates were washed several times to remove excess antibodies. […] After another round of centrifugation and a washing step, cells were resuspended in FACS buffer for reading on a CytoFLEX Flow Cytometer (Beckman Coulter). Median Fluorescence Intensity (MFI) readouts were plotted against antibody concentration and analyzed with GraphPad Prism 5.0 software.

B1: mAbBCMA-003 (antibody, V domains shown)
VH: EVQLQQSGTVLARPGASVRMSCKASGYIFPNFWMHWVKQRPGQGLDWIGAFYPGNDDTYYNQKFKGKAKLTAVTSASTAYMELSSLTSEDSAVYYCARSGYYGSSDAMDYWGQGTSVTVSS
VL: DIQMTQSPASLSASVGETVTVTCGASENIYGALNWYQRKQGKSPQLLIYGATNLADGISSRFSGSGSGRQFSLKISSLLPDDVATYFCQSVLTTPWTFGGGTKLEIK
notes: Mouse anti-BCMA IgG from hybridoma
In the case of B1, the “EC50 of inhibition of BAFF-induced NF-kB phosphorylation in NCI-H929 cells (inhibition %), unit from the axis” value (BCMA on NCI-H929 cells) is reported as 16.7 nM, the “EC50 of inhibition of the BAFF-induced NF-kB luciferase signal in HEK293F-BCMA-NF-kB-luc cells (inhibition %), unit from the axis” value [1] is reported as 3.87 nM and the “EC50 of inhibition of the APRIL-induced NF-kB luciferase signal in HEK293F-BCMA-NF-kB-luc cells (inhibition %), unit from the axis” value [2] is reported as 6.18 nM. The Kd [3] was 0.408 nM, the koff [3] was 1.85e-05 s⁻¹ and the kon [3] was 45400 M⁻¹ s⁻¹. The Kd [4] was 3.9 nM, the koff [4] was 0.000236 s⁻¹ and the kon [4] was 60600 M⁻¹ s⁻¹.

B2: mAbCD3-001 (antibody, V domains shown)
VH: QVQLQQSGPDLVKPGASVKISCKASGFSFTNYYVHWMKQRPGQGLEWIGWISPGSDNTKYNEKFKGKATLTADTSSTTAYMQLSSLTSEDSAVYYCARDDYGNYYFDYWGRGSTLTVSS
VL: DIVMSQSPSSLAVSAGEKVTMTCKSSQSLLNSRTRKNYLAWYQQKPGQSPKLLIYWASTRESGVPDRFTGSGSGTDFTLTISSVQAEDLAVYYCKQSYILRTFGGGTKLEIK
notes: Murine hybridoma monoclonal antibody
In the case of B2, the binding result [5] is reported as “binds”, the EC50 [6] is reported as 0.0235 µg/mL and the EC50 [7] is reported as 0.028 µg/mL.

B3: mAbCD3-002 (antibody, V domains shown)
VH: QVQLQQSGPELVKPGASVRISCKASGYTFTNYYIHWVKQRPGQGLEWIGWINLGDVNTKFNEKFKDKATLTADKSSTTAYMQLSSLTSEDSAVYFCARDGYSFYYFDFWGQGTTLTVSS
VL: B2 VL with A15V, T22S, S25A, L30F, T78I, L79F, V91I, K95I, Y98H, I99T
notes: as for B2
B3 was tested, and the binding result [5] was “binds”, the EC50 [6] was 0.0109 µg/mL and the EC50 [7] was 0.01 µg/mL.

B4: HuEM0006-01c (antibody, human IgG1, kappa, L234A L235A, V domains shown)
VH: B2 VH
VL: DIVMSQSPSSLAVSAGEKVTMTCKSSQSLLNSRTRKNYLAWYQQKPGQSPKLLIYWASTRESGVPDRFTGSGSGTDFTLTISSVQAEDLAVYYCKQSYILRTFGGGTKLEIKR
notes: also called chimeric control antibody
B4: binds [8].
